Measurements published in the supplement of paper PMC10126150.
± gives the standard deviation of the averaged measurements.

Test system: ATP
Assay: switch fluorescence ratio, 500 uM ATP over buffer (Cy3 cluster intensity, sum of 5 cycles each) (fold (ratio)); higher = stronger signal-on switching upon ATP binding; sequences stand for … in TCGTCGGCAGCGTCAGATGTGTATAAGAGACAGTTTTTTTTTTTTTTTTTTTTTTTTT…TC
Settings: aptamer strand: ATP DNA aptamer (quencher-CACCTGGGGGAGTATTGCGGAGGAAGG + anchor), 100 nM annealed; ATP concentration: 500 uM
In short: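 Clusters with intensities outside 100-1000 RFU were excluded. The remaining Cy3-labelled switching-strand clusters on a modified Illumina MiSeq flow-cell had been annealed to 100 nM quencher-labelled ATP aptamer and imaged in selection buffer, then after 15 min with 500 uM ATP at 22 °C, for five cycles separated by NaOH stripping and re-annealing. The fluorescence ratio, averaged per switch-domain sequence, is each cluster's summed target-cycle Cy3 intensity over its summed buffer-cycle Cy3 intensity.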
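Note: ATP exposure 15 min at 22 °C before imaging.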

Sequence TTAAAATTAT has a switch fluorescence ratio of 0.996 ± 0.023.

For TTAAACAAGC, the switch fluorescence ratio was 0.998 ± 0.017.

In the case of TTAAACCTGG, the switch fluorescence ratio is reported as 1.08 ± 0.032.

TTAAACTGGT was tested, and the switch fluorescence ratio was 1.04 ± 0.034.

Work on TTAAACTTTT yielded a switch fluorescence ratio of 1.04 ± 0.031.

Sequence TTAAAGACCT has a switch fluorescence ratio of 1.45 ± 0.042.

TTAAAGCTGG gave a switch fluorescence ratio of 0.978 ± 0.017.

TTAAAGCTGT gave a switch fluorescence ratio of 1.02 ± 0.063.

Sequence TTAAAGCTTT has a switch fluorescence ratio of 1.09 ± 0.22.

Sequence TTAAAGGATC has a switch fluorescence ratio of 0.968 ± 0.028.

With TTAAAGGGCT the switch fluorescence ratio was 0.982 ± 0.044.

Sequence TTAAAGTCTC has a switch fluorescence ratio of 0.946 ± 0.021.

Sequence TTAAATAAGT has a switch fluorescence ratio of 1 ± 0.025.

For TTAAATAATA, the switch fluorescence ratio was 1.09 ± 0.16.

With TTAAATACGT the switch fluorescence ratio was 1.06 ± 0.049.

TTAAATGAAA was tested, and the switch fluorescence ratio was 1.02 ± 0.013.

Work on TTAAATGGTT yielded a switch fluorescence ratio of 0.9783 ± 0.0076.

Work on TTAACCGATA yielded a switch fluorescence ratio of 1.04 ± 0.031.

In the case of TTAACGAGTG, the switch fluorescence ratio is reported as 0.999 ± 0.022.

Sequence TTAACGATGA has a switch fluorescence ratio of 1.01 ± 0.044.

For TTAACGGAGA, the switch fluorescence ratio was 1.039 ± 0.0084.

For TTAACGGTAA, the switch fluorescence ratio was 1.09 ± 0.042.

TTAACTACCG gave a switch fluorescence ratio of 1.042 ± 0.0084.

With TTAACTCGAC the switch fluorescence ratio was 1.07 ± 0.038.

TTAAGAACAC was tested, and the switch fluorescence ratio was 1.04 ± 0.037.

Sequence TTAAGAATTA has a switch fluorescence ratio of 1.03 ± 0.047.

With TTAAGACTTC the switch fluorescence ratio was 1.02 ± 0.041.

TTAAGAGGTT was tested, and the switch fluorescence ratio was 0.9708 ± 0.0065.

For TTAAGATAGT, the switch fluorescence ratio was 1.02 ± 0.028.

With TTAAGATTTC the switch fluorescence ratio was 1.13 ± 0.14.

Work on TTAAGCATAG yielded a switch fluorescence ratio of 1.69 ± 0.91.

With TTAAGCCTGG the switch fluorescence ratio was 0.962 ± 0.022.

Sequence TTAAGCGTTT has a switch fluorescence ratio of 0.9948 ± 0.009.

Work on TTAAGCTGGC yielded a switch fluorescence ratio of 1.05 ± 0.056.

With TTAAGGACTC the switch fluorescence ratio was 1.1 ± 0.042.

For TTAAGGCCAT, the switch fluorescence ratio was 1.08 ± 0.13.

For TTAAGGCCCG, the switch fluorescence ratio was 1.01 ± 0.012.

TTAAGGCGGG showed a switch fluorescence ratio of 1 ± 0.05.

TTAAGGGATA was tested, and the switch fluorescence ratio was 1.03 ± 0.082.

For TTAAGGGCTC, the switch fluorescence ratio was 1 ± 0.013.

In the case of TTAAGGGGGC, the switch fluorescence ratio is reported as 0.969 ± 0.042.

Work on TTAAGGTTAT yielded a switch fluorescence ratio of 1.02 ± 0.032.

TTAAGTAATA was tested, and the switch fluorescence ratio was 1.02 ± 0.014.

TTAAGTAGTG showed a switch fluorescence ratio of 0.98 ± 0.014.

TTAAGTATGT gave a switch fluorescence ratio of 1.08 ± 0.089.

TTAAGTCTAT gave a switch fluorescence ratio of 0.9889 ± 0.0078.

TTAAGTGGGC gave a switch fluorescence ratio of 1.12 ± 0.17.

TTAAGTTATA was tested, and the switch fluorescence ratio was 1.018 ± 0.0099.

With TTAAGTTATT the switch fluorescence ratio was 1.03 ± 0.056.

In the case of TTAAGTTGGG, the switch fluorescence ratio is reported as 0.989 ± 0.038.

TTAATAAATT showed a switch fluorescence ratio of 1.03 ± 0.018.

In the case of TTAATAGCGT, the switch fluorescence ratio is reported as 0.999 ± 0.029.

Work on TTAATAGGCC yielded a switch fluorescence ratio of 0.974 ± 0.036.

With TTAATAGTTA the switch fluorescence ratio was 0.992 ± 0.028.

Work on TTAATATAAG yielded a switch fluorescence ratio of 1.02 ± 0.021.

For TTAATCGCTC, the switch fluorescence ratio was 1.02 ± 0.021.

TTAATCGGGG showed a switch fluorescence ratio of 1.05 ± 0.077.

TTAATCGTAG gave a switch fluorescence ratio of 0.991 ± 0.013.

TTAATCTGTA showed a switch fluorescence ratio of 0.99 ± 0.068.

Sequence TTAATGAATT has a switch fluorescence ratio of 0.994 ± 0.014.

TTAATGATTT showed a switch fluorescence ratio of 1 ± 0.034.

Sequence TTAATGGAGG has a switch fluorescence ratio of 1.04 ± 0.017.

With TTAATGTCCT the switch fluorescence ratio was 1 ± 0.02.

TTAATTAAAG was tested, and the switch fluorescence ratio was 0.993 ± 0.017.

For TTAATTCATT, the switch fluorescence ratio was 1.01 ± 0.016.

TTAATTGCGA was tested, and the switch fluorescence ratio was 0.9861 ± 0.0048.

For TTAATTGCTT, the switch fluorescence ratio was 1.01 ± 0.043.

TTAATTTATT was tested, and the switch fluorescence ratio was 0.987 ± 0.035.

In the case of TTAATTTTCG, the switch fluorescence ratio is reported as 1.04 ± 0.066.

Work on TTAATTTTCT yielded a switch fluorescence ratio of 1.04 ± 0.033.

TTACAAAGGA was tested, and the switch fluorescence ratio was 0.999 ± 0.017.

With TTACACACAC the switch fluorescence ratio was 1.53 ± 0.073.

For TTACAGTGGA, the switch fluorescence ratio was 1.01 ± 0.0018.

In the case of TTACAGTTGT, the switch fluorescence ratio is reported as 1.01 ± 0.038.

Work on TTACATATAG yielded a switch fluorescence ratio of 1.04 ± 0.015.

Sequence TTACATATCT has a switch fluorescence ratio of 1.03 ± 0.0043.

TTACATGTTC gave a switch fluorescence ratio of 0.996 ± 0.025.

In the case of TTACATTGAG, the switch fluorescence ratio is reported as 0.976 ± 0.015.

With TTACCCATTT the switch fluorescence ratio was 1.1 ± 0.085.

With TTACCCTTAG the switch fluorescence ratio was 1.06 ± 0.028.

Work on TTACCTAGAG yielded a switch fluorescence ratio of 1.04 ± 0.038.

In the case of TTACCTCTGC, the switch fluorescence ratio is reported as 1.39 ± 0.067.

With TTACGAGGGG the switch fluorescence ratio was 0.994 ± 0.024.

TTACGCAAGT showed a switch fluorescence ratio of 1.27 ± 0.17.

With TTACGCAATT the switch fluorescence ratio was 4.42 ± 0.59.

For TTACGCTACT, the switch fluorescence ratio was 1.802 ± 0.0047.

In the case of TTACGGCATG, the switch fluorescence ratio is reported as 1.03 ± 0.014.

Work on TTACGGCCTT yielded a switch fluorescence ratio of 1.06 ± 0.012.

TTACGGGCGA gave a switch fluorescence ratio of 0.998 ± 0.029.

In the case of TTACGGGCGT, the switch fluorescence ratio is reported as 0.99 ± 0.013.

TTACGGGCTA was tested, and the switch fluorescence ratio was 0.9975 ± 0.0081.

TTACGGGGTA was tested, and the switch fluorescence ratio was 1 ± 0.011.

TTACGGGGTC was tested, and the switch fluorescence ratio was 1.07 ± 0.12.

In the case of TTACGGTAAT, the switch fluorescence ratio is reported as 1.143 ± 0.0043.

Sequence TTACGTAGGC has a switch fluorescence ratio of 1.09 ± 0.012.

TTACGTTTGG gave a switch fluorescence ratio of 1.02 ± 0.025.

TTACTAATTT was tested, and the switch fluorescence ratio was 1.05 ± 0.036.

Work on TTACTACTTT yielded a switch fluorescence ratio of 1.04 ± 0.0099.

TTACTAGGCA was tested, and the switch fluorescence ratio was 1.01 ± 0.012.

Work on TTACTCCGGG yielded a switch fluorescence ratio of 1.3 ± 0.23.

TTACTCTCTG gave a switch fluorescence ratio of 1.03 ± 0.025.

TTACTGGGGG gave a switch fluorescence ratio of 0.999 ± 0.027.

With TTACTGTTG the switch fluorescence ratio was 1.05 ± 0.1.

TTACTTCTCA showed a switch fluorescence ratio of 1 ± 0.011.

With TTACTTGGCT the switch fluorescence ratio was 1.01 ± 0.032.

Sequence TTACTTTTTC has a switch fluorescence ratio of 1.01 ± 0.011.

For TTAGAAAGAA, the switch fluorescence ratio was 0.976 ± 0.013.

TTAGAAGTTT was tested, and the switch fluorescence ratio was 1.01 ± 0.015.

Sequence TTAGAATTCC has a switch fluorescence ratio of 1.1 ± 0.091.

Sequence TTAGACCGGA has a switch fluorescence ratio of 1.02 ± 0.056.

TTAGACCGTG was tested, and the switch fluorescence ratio was 0.956 ± 0.079.

TTAGACGGGT gave a switch fluorescence ratio of 0.982 ± 0.0043.

TTAGACGGTT showed a switch fluorescence ratio of 1 ± 0.017.

In the case of TTAGAGAAGT, the switch fluorescence ratio is reported as 0.987 ± 0.019.

Sequence TTAGAGACGC has a switch fluorescence ratio of 1.06 ± 0.021.

TTAGAGCTAG showed a switch fluorescence ratio of 1.07 ± 0.09.

Sequence TTAGAGGACT has a switch fluorescence ratio of 1.01 ± 0.025.

TTAGAGGGGG showed a switch fluorescence ratio of 1.01 ± 0.032.

TTAGAGGTTG was tested, and the switch fluorescence ratio was 1.13 ± 0.21.

With TTAGATGGAG the switch fluorescence ratio was 0.984 ± 0.024.

In the case of TTAGATGGTT, the switch fluorescence ratio is reported as 0.984 ± 0.021.

TTAGATGTCC gave a switch fluorescence ratio of 0.9822 ± 0.0075.

TTAGCAGCGT showed a switch fluorescence ratio of 1 ± 0.019.

TTAGCAGCTG showed a switch fluorescence ratio of 1 ± 0.04.

Sequence TTAGCAGGGA has a switch fluorescence ratio of 1 ± 0.019.

Sequence TTAGCATGGG has a switch fluorescence ratio of 1.04 ± 0.037.

Work on TTAGCCTAGT yielded a switch fluorescence ratio of 0.965 ± 0.037.

TTAGCGAGGA was tested, and the switch fluorescence ratio was 1.03 ± 0.046.

In the case of TTAGCGGTGG, the switch fluorescence ratio is reported as 0.926 ± 0.057.

With TTAGCGTGCT the switch fluorescence ratio was 0.994 ± 0.0073.

TTAGCTAAAA showed a switch fluorescence ratio of 1.009 ± 0.01.

TTAGCTAGTT gave a switch fluorescence ratio of 0.987 ± 0.042.

In the case of TTAGCTGTAG, the switch fluorescence ratio is reported as 1.09 ± 0.11.

For TTAGGAACTC, the switch fluorescence ratio was 0.982 ± 0.014.

Sequence TTAGGAAGGG has a switch fluorescence ratio of 0.956 ± 0.035.

Sequence TTAGGACCCT has a switch fluorescence ratio of 1.01 ± 0.041.

TTAGGACTGG showed a switch fluorescence ratio of 0.992 ± 0.0054.

For TTAGGAGGTT, the switch fluorescence ratio was 0.965 ± 0.028.

Sequence TTAGGATTAA has a switch fluorescence ratio of 1.02 ± 0.063.

With TTAGGATTGG the switch fluorescence ratio was 0.986 ± 0.025.

For TTAGGCACAA, the switch fluorescence ratio was 1.03 ± 0.038.

TTAGGCAGAT showed a switch fluorescence ratio of 1.24 ± 0.36.

TTAGGCCCCG was tested, and the switch fluorescence ratio was 1.01 ± 0.04.

TTAGGCCGGA gave a switch fluorescence ratio of 1.04 ± 0.075.

Sequence TTAGGCTGAT has a switch fluorescence ratio of 0.981 ± 0.02.

Sequence TTAGGGAGTG has a switch fluorescence ratio of 1 ± 0.027.

With TTAGGGCTTT the switch fluorescence ratio was 1.01 ± 0.035.

For TTAGGGGATC, the switch fluorescence ratio was 1 ± 0.025.

Sequence TTAGGGGCGT has a switch fluorescence ratio of 0.989 ± 0.013.

Sequence TTAGGGGGTG has a switch fluorescence ratio of 1.01 ± 0.025.

Sequence TTAGGGGTCG has a switch fluorescence ratio of 1 ± 0.041.

For TTAGGGTCAT, the switch fluorescence ratio was 0.979 ± 0.012.

With TTAGGGTCGT the switch fluorescence ratio was 1.01 ± 0.018.
